Measurements taken from the Human Domainome abundance scans (Beltran et al. 2025).
± gives the uncertainty stated by the source.

B1: PMS1 protein homolog 1, residues 572 to 637; numbered along this chain, P54277 (parent)
chain: KKPMSASALFVQDHRPQFLIENPKTSLEDATLQIEELWKTLSEEEKLKYEEKATKDLERYNSQMKR

Variants of: B1
Test: abundance fitness (aPCA) (normalised: wild type 0, dead -1); higher = more abundant; growth selection in yeast, the domain comes from the species named
Details: Homo sapiens

Q: Which abundance fitness does the source give for KKPMSASVLFVQDHRPQFLIENPKTSLEDATLQIEELWKTLSEEEKLKYEEKATKDLERYNSQMKR [A8V] here?
A: -0.457 ± 0.15

Q: With KKPMSASALFVQDHRPQFLIENPKTSLEDATLQIEELWKTLSEEEKLKYEEKAGKDLERYNSQMKR [T54G] as the variant, how does the abundance fitness read?
A: 0.07 ± 0.071

Q: Which abundance fitness does the source give for KKPMSASALFVQDHRPQFLIENPKTSLEDATLQIEELWKTLSEEEKLKYEEKAEKDLERYNSQMKR [T54E] here?
A: 0.096 ± 0.095

Q: Which abundance fitness does the source give for KKPMSASALFVQDHRPQFLIENPKTSLEDATLQIEELWKTLSEEEKLKYEEKAIKDLERYNSQMKR [T54I] here?
A: -0.186 ± 0.087

Q: With KKPMSASALFVQDHRPQFLIENPKTSLEDATKQIEELWKTLSEEEKLKYEEKATKDLERYNSQMKR [L32K] as the variant, how does the abundance fitness read?
A: 0.002 ± 0.14

Q: For KKPMSASALFVQDHRPQFLIENPKTSTEDATLQIEELWKTLSEEEKLKYEEKATKDLERYNSQMKR [L27T], which abundance fitness is on record?
A: -0.101 ± 0.14

Q: For KKPMSASALFVQDHRPQFLIENPKTSLEDATLSIEELWKTLSEEEKLKYEEKATKDLERYNSQMKR [Q33S], which abundance fitness is on record?
A: -0.23 ± 0.16

Q: With KKPMSASALFVQDHRPQFLIENPKGSLEDATLQIEELWKTLSEEEKLKYEEKATKDLERYNSQMKR [T25G] as the variant, how does the abundance fitness read?
A: -0.387 ± 0.094

Q: Which abundance fitness does the source give for KKPMSASALFVQDHRPQFLIENPKQSLEDATLQIEELWKTLSEEEKLKYEEKATKDLERYNSQMKR [T25Q] here?
A: -0.143 ± 0.12

Q: Which abundance fitness does the source give for KKPMSASALFVQDHRPQFLIENPKHSLEDATLQIEELWKTLSEEEKLKYEEKATKDLERYNSQMKR [T25H] here?
A: -0.395 ± 0.33

Q: With KKPMSASALFVQDHRPQFLIENPKTSLEDATLQIEELWKTLSEEEKLKYEEKYTKDLERYNSQMKR [A53Y] as the variant, how does the abundance fitness read?
A: -0.22 ± 0.089

Q: For KKPMSASALFVQDHRAQFLIENPKTSLEDATLQIEELWKTLSEEEKLKYEEKATKDLERYNSQMKR [P16A], which abundance fitness is on record?
A: -0.06 ± 0.099

Q: For KKPMSASALFVQDHRLQFLIENPKTSLEDATLQIEELWKTLSEEEKLKYEEKATKDLERYNSQMKR [P16L], which abundance fitness is on record?
A: -0.401 ± 0.12

Q: With KKPMSASALFVQDHRPQFLIENPKTSLEDATLQIEELWKTLSEEEKLKYEEKATKDLEQYNSQMKR [R59Q] as the variant, how does the abundance fitness read?
A: 0.087 ± 0.085

Q: With KKPMSASALFVQDHRPQFLIENPKTSLEDATLQIEELWKTLSEEEKLKYEEKATKDYERYNSQMKR [L57Y] as the variant, how does the abundance fitness read?
A: -0.18 ± 0.11

Q: With KKPMSASALFVQDHRPQFLIENPKTSLEDATLQIEELWKTLSEEEKLKYEEKATKDIERYNSQMKR [L57I] as the variant, how does the abundance fitness read?
A: -0.136 ± 0.12

Q: Which abundance fitness does the source give for KKPMSASALFVQNHRPQFLIENPKTSLEDATLQIEELWKTLSEEEKLKYEEKATKDLERYNSQMKR [D13N] here?
A: -0.556 ± 0.25

Q: With KKPMSASALFVQDHRPQFLIENPKTSLEDATLQIEELWKTLSEEEKLKYEEKATKDLERYNSQMKI [R66I] as the variant, how does the abundance fitness read?
A: -0.697 ± 0.43

Q: For KKPMSASALFVQDHRPQFLIENPKTSLEDATLQIEELWKTLSEEEKLKYEEKATKDLERYNSQMKK [R66K], which abundance fitness is on record?
A: -0.152 ± 0.33

Q: Which abundance fitness does the source give for KKPMSASALFVQDHRPQFLIENPKTSLEDATLQIEELWKTLSEEEKLKYEEKATKDLERYNSQMKG [R66G] here?
A: 0.054 ± 0.11

Q: For KKPMSASALFVQDHRPQFLIENPKTSLEDATLQIEELWKTLSEEEKLKYEEKATKDLERYNSQMKE [R66E], which abundance fitness is on record?
A: 0.031 ± 0.17

Q: With KKPMSASALFVQDHRPQFLIENPKTSLEDATLQIEELWKTLSEEEKLCYEEKATKDLERYNSQMKR [K48C] as the variant, how does the abundance fitness read?
A: 0.041 ± 0.17

Q: Which abundance fitness does the source give for KKPMSASALFVQDHRPQFLIENPKTSLEDATLQIEELWKTLSEEEKLKYEEKATKDLPRYNSQMKR [E58P] here?
A: -0.257 ± 0.073

Q: For KKPMSASALFVQDHRPQFLIENPKTSLEDATLQIEELWKTLSEEEKLKYEEKATKDLHRYNSQMKR [E58H], which abundance fitness is on record?
A: -0.09 ± 0.09

Q: For KKPMSASALFVQDHRPQFLIENPKTSLEDATLQIEELWKTLSEEELLKYEEKATKDLERYNSQMKR [K46L], which abundance fitness is on record?
A: -0.685 ± 0.046

Q: For KKPMSASALFVQDHRPQFLIENPKTSLEDATLQIEELWKTLSEEERLKYEEKATKDLERYNSQMKR [K46R], which abundance fitness is on record?
A: -0.058 ± 0.07

Q: With KKPMSASALFVQDHRPQFLIENPKTSLEDARLQIEELWKTLSEEEKLKYEEKATKDLERYNSQMKR [T31R] as the variant, how does the abundance fitness read?
A: -0.089 ± 0.13

Q: Which abundance fitness does the source give for KKPMSASALFVQDHRPQFLIENPKTSLEDALLQIEELWKTLSEEEKLKYEEKATKDLERYNSQMKR [T31L] here?
A: -0.433 ± 0.1

Q: Which abundance fitness does the source give for KKPMSASALFVQDHRPQFLIENPKTSLEDATLQIEELWKKLSEEEKLKYEEKATKDLERYNSQMKR [T40K] here?
A: -0.099 ± 0.12

Q: Which abundance fitness does the source give for KKPMSASALFVQDHRPQFLIENPKTSLEDATLQIEELWKCLSEEEKLKYEEKATKDLERYNSQMKR [T40C] here?
A: 0.115 ± 0.21

Q: Which abundance fitness does the source give for KKPMSASALFVQDHRPQFLIENPKTSLEDATLQIEELWKSLSEEEKLKYEEKATKDLERYNSQMKR [T40S] here?
A: -0.128 ± 0.092

Q: Which abundance fitness does the source give for KKPMSASALFVQDHRPQFLIENPKTSLEDATLQIEELWKTLSEEEKLKYEEKATIDLERYNSQMKR [K55I] here?
A: -0.001 ± 0.094

Q: Which abundance fitness does the source give for KKPMSASALFVQDHRPQFLIENPKTSLEDATLQIEELWKTLSEENKLKYEEKATKDLERYNSQMKR [E45N] here?
A: -0.476 ± 0.18

Q: For KKPMSASALFVQDHRPQFLIENPKTSLEDATLQIEELWKTLSEEVKLKYEEKATKDLERYNSQMKR [E45V], which abundance fitness is on record?
A: -0.169 ± 0.06

Q: With KKPMSASALFVQDHRPQFLIENPKTSLEDATLQIEELWKTLSEEYKLKYEEKATKDLERYNSQMKR [E45Y] as the variant, how does the abundance fitness read?
A: -0.787 ± 0.17

Q: Which abundance fitness does the source give for KKPMSASALFVQDHRPQFLIENPKTSLEDATLQIEELWKTLSEEHKLKYEEKATKDLERYNSQMKR [E45H] here?
A: -0.123 ± 0.085

Q: Which abundance fitness does the source give for KKPMSAWALFVQDHRPQFLIENPKTSLEDATLQIEELWKTLSEEEKLKYEEKATKDLERYNSQMKR [S7W] here?
A: -0.388 ± 0.24

Q: For KKPMSAGALFVQDHRPQFLIENPKTSLEDATLQIEELWKTLSEEEKLKYEEKATKDLERYNSQMKR [S7G], which abundance fitness is on record?
A: -0.134 ± 0.083

Q: With KKPMSASALFVQDHRPQFLIENPKTSLEDATLQIEELWKTLSEEEKLKYEQKATKDLERYNSQMKR [E51Q] as the variant, how does the abundance fitness read?
A: -0.043 ± 0.074

Q: Which abundance fitness does the source give for KKPMSASALFVQDHRPQFLIENPKTSLEDATLQIEELWKTLSEEEKLKYETKATKDLERYNSQMKR [E51T] here?
A: -0.057 ± 0.058

Q: With KKPMSASALFVQDHRPQFLIENPKTSLEDATLQIEELWKTLSEEEKLKYEEVATKDLERYNSQMKR [K52V] as the variant, how does the abundance fitness read?
A: -0.229 ± 0.066
